We go through 21 molecules from patent US20110086770A1 (ANAPHORE, published 2011).

The labels stand for the following.
T1: recombinant human IL-23R/Fc chimera (R&D Systems) (human, UniProt Q5VWK5 24-353)
T1 construct: bought; also called human IL-23R/Fc fusion protein; rhIL23RFc
T1 sequence (looked up): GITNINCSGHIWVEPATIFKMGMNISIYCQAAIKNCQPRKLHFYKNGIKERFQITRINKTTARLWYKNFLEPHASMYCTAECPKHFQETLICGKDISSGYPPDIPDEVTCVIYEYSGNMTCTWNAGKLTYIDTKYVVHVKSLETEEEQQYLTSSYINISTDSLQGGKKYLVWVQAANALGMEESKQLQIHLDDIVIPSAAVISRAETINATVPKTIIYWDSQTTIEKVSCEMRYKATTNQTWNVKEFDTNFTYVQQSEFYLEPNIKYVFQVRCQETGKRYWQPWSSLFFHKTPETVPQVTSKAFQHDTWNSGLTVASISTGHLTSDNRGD

B1: 105-08-2G7 ATRIMER (designed binder)
chain: EPPTQKPKKIVNAKKDVVNTKMFEELKSRLDTLAQEVALLKEQQALQTVCLKGTKVHMKCFLAFTQTKTFHEASEDCISRGGTLSTPQTGSENDALYEYLRQSVGNEAEIWLGLNGSPKTGTWVDMTGARIAYKNWETEITAQPDGGFGYFGENCAVLSGAANGKWFDKRCRDQLPYICQFGIV
notes: not shown: C-terminal tag: His/Myc (pANA4) or HA-StrepII (pANA10)
B2: 105-20-2C7 ATRIMER (designed binder)
chain: EPPTQKPKKIVNAKKDVVNTKMFEELKSRLDTLAQEVALLKEQQALQTVCLKGTKVHMKCFLAFTQTKTFHEASEDCISRGGTLSTPQTGSENDALYEYLRQSVGNEAEIWLGLNGSVTTDTWVDMTGARIAYKNWETEITAQPDGGFGYFGENCAVLSGAANGKWFDKRCRDQLPYICQFGIV
B3: 105-20-2C11 ATRIMER (designed binder)
chain: EPPTQKPKKIVNAKKDVVNTKMFEELKSRLDTLAQEVALLKEQQALQTVCLKGTKVHMKCFLAFTQTKTFHEASEDCISRGGTLSTPQTGSENDALYEYLRQSVGNEAEIWLGLNGSVRTDTWVDMTGARIAYKNWETEITAQPDGGWGYFGENCAVLSGAANGKWFDKRCRDQLPYICQFGIV
B4: 105-20-1A6 ATRIMER (designed binder)
chain: EPPTQKPKKIVNAKKDVVNTKMFEELKSRLDTLAQEVALLKEQQALQTVCLKGTKVHMKCFLAFTQTKTFHEASEDCISRGGTLSTPQTGSENDALYEYLRQSVGNEAEIWLGLNGSAKTGTWVDMTGARIAYKNWETEITAQPDGGWGYFGENCAVLSGAANGKWFDKRCRDQLPYICQFGIV
notes: as for B1
B5: 105-08-2H2 ATRIMER (designed binder)
chain: EPPTQKPKKIVNAKKDVVNTKMFEELKSRLDTLAQEVALLKEQQALQTVCLKGTKVHMKCFLAFTQTKTFHEASEDCISRGGTLSTPQTGSENDALYEYLRQSVGNEAEIWLGLNGSPTTDTWVDMTGARIAYKNWETEITAQPDGGWGYFGENCAVLSGAANGKWFDKRCRDQLPYICQFGIV
B6: 105-08-2H6 ATRIMER (designed binder)
chain: EPPTQKPKKIVNAKKDVVNTKMFEELKSRLDTLAQEVALLKEQQALQTVCLKGTKVHMKCFLAFTQTKTFHEASEDCISRGGTLSTPQTGSENDALYEYLRQSVGNEAEIWLGLNGSPVTGTWVDMTGARIAYKNWETEITAQPDGGFGYFGENCAVLSGAANGKWFDKRCRDQLPYICQFGIV
B7: 105-20-2F10 ATRIMER (designed binder)
chain: EPPTQKPKKIVNAKKDVVNTKMFEELKSRLDTLAQEVALLKEQQALQTVCLKGTKVHMKCFLAFTQTKTFHEASEDCISRGGTLSTPQTGSENDALYEYLRQSVGNEAEIWLGLNGSARTDTWVDMTGARIAYKNWETEITAQPDGGFGYFGENCAVLSGAANGKWFDKRCRDQLPYICQFGIV
modifications: Forms a homotrimer (ATRIMER) through the tetranectin coiled coil; one protomer is given.
notes: not shown: C-terminal tag
B8: 105-20-1H1 ATRIMER (designed binder)
chain: EPPTQKPKKIVNAKKDVVNTKMFEELKSRLDTLAQEVALLKEQQALQTVCLKGTKVHMKCFLAFTQTKTFHEASEDCISRGGTLSTPQTGSENDALYEYLRQSVGNEAEIWLGLNGSPLTNTWVDMTGARIAYKNWETEITAQPDGGWGYFGENCAVLSGAANGKWFDKRCRDQLPYICQFGIV
B9: 105-20-2C4a ATRIMER (designed binder)
chain: EPPTQKPKKIVNAKKDVVNTKMFEELKSRLDTLAQEVALLKEQQALQTVCLKGTKVHMKCFLAFTQTKTFHEASEDCISRGGTLSTPQTGSENDALYEYLRQSVGNEAEIWLGLNGSAKTDTWVDMTGARIAYKNWETEITAQPDGGWGYFGENCAVLSGAANGKWFDKRCRDQLPYICQFGIV
notes: as for B1
B10: 105-08-2H10 ATRIMER (designed binder)
chain: EPPTQKPKKIVNAKKDVVNTKMFEELKSRLDTLAQEVALLKEQQALQTVCLKGTKVHMKCFLAFTQTKTFHEASEDCISRGGTLSTPQTGSENDALYEYLRQSVGNEAEIWLGLNGSNHTDTWVDMTGARIAYKNWETEITAQPDGGFGYFGENCAVLSGAANGKWFDKRCRDQLPYICQFGIV
notes: as for B1
B11: 105-08-2H12 ATRIMER (designed binder)
chain: EPPTQKPKKIVNAKKDVVNTKMFEELKSRLDTLAQEVALLKEQQALQTVCLKGTKVHMKCFLAFTQTKTFHEASEDCISRGGTLSTPQTGSENDALYEYLRQSVGNEAEIWLGLNGSPRTETWVDMTGARIAYKNWETEITAQPDGGFGYFGENCAVLSGAANGKWFDKRCRDQLPYICQFGIV
modifications: Homotrimer of the given chain (ATRIMER complex).
B12: 105-08-2G10 ATRIMER (designed binder)
chain: EPPTQKPKKIVNAKKDVVNTKMFEELKSRLDTLAQEVALLKEQQALQTVCLKGTKVHMKCFLAFTQTKTFHEASEDCISRGGTLSTPQTGSENDALYEYLRQSVGNEAEIWLGLNGSPLTDTWVDMTGARIAYKNWETEITAQPDGGFGYFGENCAVLSGAANGKWFDKRCRDQLPYICQFGIV
B13: 105-20-2G5 ATRIMER (designed binder)
chain: EPPTQKPKKIVNAKKDVVNTKMFEELKSRLDTLAQEVALLKEQQALQTVCLKGTKVHMKCFLAFTQTKTFHEASEDCISRGGTLSTPQTGSENDALYEYLRQSVGNEAEIWLGLNGSRRTDTWVDMTGARIAYKNWETEITAQPDGGWGYFGENCAVLSGAANGKWFDKRCRDQLPYICQFGIV
notes: as for B1
B14: 105-20-1B4 ATRIMER (designed binder)
chain: EPPTQKPKKIVNAKKDVVNTKMFEELKSRLDTLAQEVALLKEQQALQTVCLKGTKVHMKCFLAFTQTKTFHEASEDCISRGGTLSTPQTGSENDALYEYLRQSVGNEAEIWLGLNGSSRTNTWVDMTGARIAYKNWETEITAQPDGGWGYFGENCAVLSGAANGKWFDKRCRDQLPYICQFGIV
modifications: Homotrimer of the given chain (ATRIMER complex).
B15: 105-20-2G12 ATRIMER (designed binder)
chain: EPPTQKPKKIVNAKKDVVNTKMFEELKSRLDTLAQEVALLKEQQALQTVCLKGTKVHMKCFLAFTQTKTFHEASEDCISRGGTLSTPQTGSENDALYEYLRQSVGNEAEIWLGLNGSPRTNTWVDMTGARIAYKNWETEITAQPDGGFGYFGENCAVLSGAANGKWFDKRCRDQLPYICQFGIV
notes: not shown: C-terminal tag: Myc/His6 (pANA4) or HA-StrepII (pANA10); A Ser left at the ompA junction may also sit at the N-terminus
B16: 105-08-2H4 ATRIMER (designed binder)
chain: EPPTQKPKKIVNAKKDVVNTKMFEELKSRLDTLAQEVALLKEQQALQTVCLKGTKVHMKCFLAFTQTKTFHEASEDCISRGGTLSTPQTGSENDALYEYLRQSVGNEAEIWLGLNGSVRTDTWVDMTGARIAYKNWETEITAQPDGGFGYFGENCAVLSGAANGKWFDKRCRDQLPYICQFGIV
B17: 105-20-1H7 ATRIMER (designed binder)
chain: EPPTQKPKKIVNAKKDVVNTKMFEELKSRLDTLAQEVALLKEQQALQTVCLKGTKVHMKCFLAFTQTKTFHEASEDCISRGGTLSTPQTGSENDALYEYLRQSVGNEAEIWLGLNGSAGTNTWVDMTGARIAYKNWETEITAQPDGGFGYFGENCAVLSGAANGKWFDKRCRDQLPYICQFGIV
B18: 105-08-2H3 ATRIMER (designed binder)
chain: EPPTQKPKKIVNAKKDVVNTKMFEELKSRLDTLAQEVALLKEQQALQTVCLKGTKVHMKCFLAFTQTKTFHEASEDCISRGGTLSTPQTGSENDALYEYLRQSVGNEAEIWLGLNGSSLTNTWVDMTGARIAYKNWETEITAQPDGGWGYFGENCAVLSGAANGKWFDKRCRDQLPYICQFGIV
modifications: Homotrimer of the given chain (ATRIMER complex).
B19: 105-20-2C4b ATRIMER (designed binder)
chain: EPPTQKPKKIVNAKKDVVNTKMFEELKSRLDTLAQEVALLKEQQALQTVCLKGTKVHMKCFLAFTQTKTFHEASEDCISRGGTLSTPQTGSENDALYEYLRQSVGNEAEIWLGLNGSVKTDTWVDMTGARIAYKNWETEITAQPDGGWGYFGENCAVLSGAANGKWFDKRCRDQLPYICQFGIV
modifications: Forms a homotrimer (ATRIMER) through the tetranectin coiled coil; one protomer is given.
notes: not shown: C-terminal tag
B20: 105-08-2H11 ATRIMER (designed binder)
chain: EPPTQKPKKIVNAKKDVVNTKMFEELKSRLDTLAQEVALLKEQQALQTVCLKGTKVHMKCFLAFTQTKTFHEASEDCISRGGTLSTPQTGSENDALYEYLRQSVGNEAEIWLGLNGSPRTDTWVDMTGARIAYKNWETEITAQPDGGWGYFGENCAVLSGAANGKWFDKRCRDQLPYICQFGIV
B21: 105-59-3A5 ATRIMER (designed binder)
chain: EPPTQKPKKIVNAKKDVVNTKMFEELKSRLDTLAQEVALLKEQQALQTVCLKGTKVHMKCFLAFTQTKTFHEASEDCISRGGTLSTPQTGSENDALYEYLRQSVGNEAEIWLGLNGSLLTNTWVDMTGARIAYKNWETEITAQPDGGFGVFGENCAVLSGAANGKWFDKRCRDQLPYICQFGIV
notes: as for B15

The assay addresses T1, recombinant human IL-23R/Fc chimera …. Description: competition ELISA against IL-23. How it is done: Assays were performed generally as follows. Individual wells in Immulon HB2 plates were incubated overnight at 4° C. with 100 μL PBS containing 100 ng of an anti-human IgG Fc (R&D MAB 110 clone 97924). Plates were washed five times with PBS/0.05% Tween 20, and wells were incubated for 1.5 h at RT with 100 μL each of PBS containing 50 ng of recombinant human IL-23R/Fc. […] Competitor was included at a final concentration of 1 μg/mL. After incubation, plates were washed as described and wells were incubated for 40 min at RT with 100 μL each of PBS containing a 1:5000 dilution of streptavidin-HRP conjugate (Pierce catalog no. 21130). After washing, wells were incubated with 100 μL each of TMB (BioFX Lab catalog no. TMBH-1000-0) for up to 30 min at RT. Reactions were stopped with an equal volume of 0.2 M sulfuric acid.
Consider B1, for which the “Ratio IC50 to 056-53.H4E IC50” value came out at 2.5 ratio.
With B2 the figure was 3.5 ratio; with B3, 4.8 ratio.
With B4 the figure was 6.6 ratio; with B5, 4 ratio; with B6, 2 ratio.
B7: the “Ratio IC50 to 056-53.H4E IC50” value came out at 4.2 ratio.
The figure for B8 is 1.8 ratio.
With B9 the figure was 2.9 ratio.
With B10 the figure was 6.5 ratio; with B11, 3.3 ratio; with B12, 1.8 ratio.
As to B13, the “Ratio IC50 to 056-53.H4E IC50” value was found to be 5.3 ratio.
Turning to B14, the “Ratio IC50 to 056-53.H4E IC50” value stood at 3 ratio.
With B15 the figure was 1 ratio.
The figure for B16 is 5 ratio; for B17 it is 2.1 ratio.
In the case of B18, the “Ratio IC50 to 056-53.H4E IC50” value is 2.9 ratio.
Turning to B19, the “Ratio IC50 to 056-53.H4E IC50” value was determined as 4.2 ratio.
The figure for B20 is 4.3 ratio; for B21 it is 1.2 ratio.
